In patent US20260248972A1, “DUAL RECEPTOR TARGETING RADIOLIGANDS AND USES THEREOF RELATED APPLICATIONS” (priority 2022, published 2026):

Assay: in vivo
Conditions: BALB/c nude, mouse, in vivo, iv, total radioactivity
Protocol: To a 0.5 M NaOAc buffer (20-50 μL, pH=4.5) was added 4 μL of exemplary or comparator compound in DMSO stock solution (2000 μM) and 2 mCi ^177Lu (ITM Isotope Technologies Munich), the resulting mixture was heated to 95° C. for 15 min. The resulting product was analyzed by radio-TLC and radio-HPLC (column: Shim-pack GIST 5 μm 4.6*150 mm; buffer A: 0.2% formic acid H2O; buffer B: 0.1% formic acid acetonitrile; flow rate: 1 mL/min; gradient: 0-5 min: 10% B to 95% B; then 5-8 min: 95% B). The labelled products were used immediately or diluted by a PBS buffer containing freshly added 3 mg/mL ascorbate.
All animal care and experimental procedure were performed by following the animal protocols approved by the ethics committee of China Institute of Radiation Protection. The BALB/c nude mice (Charles River, Beijing) were utilized for these studies. Mice were below 5 per cage in sterile, microisolator cages under temperature- and humidity-controlled conditions with a 12 h light/12 h dark schedule and fed irradiated rodent chow and reverse osmosis (RO) sterile water ad libitum. In preparation for tumor cell inoculations, mice were anesthetized with isoflurane (RWD Life Science Inc.) at an induction rate of 4% and maintained at a rate of 2.5% with 0.4 L oxygen delivered via precision vaporizer and a non-rebreathing apparatus. These mice received subcutaneous rear flank injections of approximately 4×10^6 AR42J cells ([…] pancreatic cancer cell line) suspended in 200 μL of phosphate-buffered saline (PBS) and Matrigel (Corning) (1/1). Xenografted tumors were allowed to grow for ~2-4 weeks post-inoculation and ranged in mass from 0.05 to 0.50 g (average tumor size, 0.20 g). […] The mice were euthanized, and the tissues and organs were excised from the animals at 4, 24 and 72 h post-injection. The tissues and organs were weighed, counted in a PerkinElmer 2480 WIZARD2 γ counter, and the percent injected dose (% ID) and % ID/g of each organ or tissue were calculated.

C[C@@H](O)[C@H](NC(=O)[C@@H]1CSSC[C@H](NC(=O)[C@@H](Cc2ccccc2)NC(=O)COCCOCCNC(=O)[C@H](CCCCNC(=O)c2cccc(NC(=O)N[C@@H]3CN(C4CCCCC4)c4ccccc4N(CC(=O)C(C)(C)C)C3=O)c2)NC(=O)CN2CCN(CC(=O)O)CCN(CC(=O)O)CCN(CC(=O)O)CC2)C(=O)N[C@@H](Cc2ccc(O)cc2)C(=O)N[C@H](Cc2c[nH]c3ccccc23)C(=O)N[C@@H](CCCCN)C(=O)N[C@@H]([C@@H](C)O)C(=O)N1)C(=O)O [Compound 177Lu-I-37, metal not drawn]
tissue uptake at 4 h (% ID/g Adrenal gland): 2.01 %ID/g | tissue uptake at 24 h (% ID/g Adrenal gland): 1.43 %ID/g | tissue uptake at 72 h (% ID/g Adrenal gland): 0.22 %ID/g | tissue uptake at 4 h (% ID/g Blood): 0.94 %ID/g | tissue uptake at 24 h (% ID/g Blood): 0.18 %ID/g | tissue uptake at 72 h (% ID/g Blood): 0.05 %ID/g | tissue uptake at 4 h (% ID/g Fat): 3.28 %ID/g | tissue uptake at 24 h (% ID/g Fat): 0.4 %ID/g | tissue uptake at 72 h (% ID/g Fat): 0.32 %ID/g | tissue uptake at 4 h (% ID/g Femur): 0.83 %ID/g | tissue uptake at 24 h (% ID/g Femur): 0.26 %ID/g | tissue uptake at 72 h (% ID/g Femur): 0.18 %ID/g | tissue uptake at 4 h (% ID/g Heart): 1.12 %ID/g | tissue uptake at 24 h (% ID/g Heart): 0.4 %ID/g | tissue uptake at 72 h (% ID/g Heart): 0.15 %ID/g | tissue uptake at 4 h (% ID/g Intestine): 2.17 %ID/g | tissue uptake at 24 h (% ID/g Intestine): 0.67 %ID/g | tissue uptake at 72 h (% ID/g Intestine): 0.5 %ID/g | tissue uptake at 4 h (% ID/g Kidney): 22.5 %ID/g | tissue uptake at 24 h (% ID/g Kidney): 7.79 %ID/g | tissue uptake at 72 h (% ID/g Kidney): 3.16 %ID/g | tissue uptake at 4 h (% ID/g Liver): 11 %ID/g | tissue uptake at 24 h (% ID/g Liver): 2.4 %ID/g | tissue uptake at 72 h (% ID/g Liver): 2.03 %ID/g | tissue uptake at 4 h (% ID/g Lung): 4.42 %ID/g | tissue uptake at 24 h (% ID/g Lung): 1.38 %ID/g | tissue uptake at 72 h (% ID/g Lung): 1.41 %ID/g | tissue uptake at 4 h (% ID/g Muscle): 0.38 %ID/g | tissue uptake at 24 h (% ID/g Muscle): 0.1 %ID/g | tissue uptake at 72 h (% ID/g Muscle): 0.03 %ID/g | tissue uptake at 4 h (% ID/g Pancreas): 4.5 %ID/g | tissue uptake at 24 h (% ID/g Pancreas): 0.68 %ID/g | tissue uptake at 72 h (% ID/g Pancreas): 0.19 %ID/g | tissue uptake at 4 h (% ID/g Spleen): 0.8 %ID/g | tissue uptake at 24 h (% ID/g Spleen): 0.2 %ID/g | tissue uptake at 72 h (% ID/g Spleen): 0.13 %ID/g | tissue uptake at 4 h (% ID/g Stomach): 6.95 %ID/g | tissue uptake at 24 h (% ID/g Stomach): 2.58 %ID/g | tissue uptake at 72 h (% ID/g Stomach): 2.13 %ID/g | tissue uptake at 4 h (% ID/g Tumor): 48.7 %ID/g | tissue uptake at 24 h (% ID/g Tumor): 23.1 %ID/g | tissue uptake at 72 h (% ID/g Tumor): 21.4 %ID/g

C[C@@H](O)[C@H](NC(=O)[C@@H]1CSSC[C@H](NC(=O)[C@@H](Cc2ccccc2)NC(=O)COCCOCCNC(=O)COCCOCCNC(=O)[C@H](CCCCNC(=O)c2cccc(NC(=O)N[C@@H]3CN(C4CCCCC4)c4ccccc4N(CC(=O)C(C)(C)C)C3=O)c2)NC(=O)CN2CCN(CC(=O)O)CCN(CC(=O)O)CCN(CC(=O)O)CC2)C(=O)N[C@@H](Cc2ccc(O)cc2)C(=O)N[C@H](Cc2c[nH]c3ccccc23)C(=O)N[C@@H](CCCCN)C(=O)N[C@@H]([C@@H](C)O)C(=O)N1)C(=O)O [Compound 177Lu-I-39, metal not drawn]
tissue uptake at 4 h (% ID/g Adrenal gland): 1.33 %ID/g | tissue uptake at 24 h (% ID/g Adrenal gland): 1.06 %ID/g | tissue uptake at 72 h (% ID/g Adrenal gland): 0.3 %ID/g | tissue uptake at 4 h (% ID/g Blood): 0.91 %ID/g | tissue uptake at 24 h (% ID/g Blood): 0.33 %ID/g | tissue uptake at 72 h (% ID/g Blood): 0.06 %ID/g | tissue uptake at 4 h (% ID/g Fat): 3.38 %ID/g | tissue uptake at 24 h (% ID/g Fat): 1.07 %ID/g | tissue uptake at 72 h (% ID/g Fat): 0.27 %ID/g | tissue uptake at 4 h (% ID/g Femur): 0.9 %ID/g | tissue uptake at 24 h (% ID/g Femur): 0.42 %ID/g | tissue uptake at 72 h (% ID/g Femur): 0.1 %ID/g | tissue uptake at 4 h (% ID/g Heart): 0.84 %ID/g | tissue uptake at 24 h (% ID/g Heart): 0.38 %ID/g | tissue uptake at 72 h (% ID/g Heart): 0.12 %ID/g | tissue uptake at 4 h (% ID/g Intestine): 1.8 %ID/g | tissue uptake at 24 h (% ID/g Intestine): 0.76 %ID/g | tissue uptake at 72 h (% ID/g Intestine): 0.24 %ID/g | tissue uptake at 4 h (% ID/g Kidney): 25.7 %ID/g | tissue uptake at 24 h (% ID/g Kidney): 12 %ID/g | tissue uptake at 72 h (% ID/g Kidney): 3.2 %ID/g | tissue uptake at 4 h (% ID/g Liver): 6.35 %ID/g | tissue uptake at 24 h (% ID/g Liver): 2.78 %ID/g | tissue uptake at 72 h (% ID/g Liver): 1.24 %ID/g | tissue uptake at 4 h (% ID/g Lung): 3.81 %ID/g | tissue uptake at 24 h (% ID/g Lung): 1.85 %ID/g | tissue uptake at 72 h (% ID/g Lung): 0.87 %ID/g | tissue uptake at 4 h (% ID/g Muscle): 0.3 %ID/g | tissue uptake at 24 h (% ID/g Muscle): 0.13 %ID/g | tissue uptake at 72 h (% ID/g Muscle): 0.02 %ID/g | tissue uptake at 4 h (% ID/g Pancreas): 3.71 %ID/g | tissue uptake at 24 h (% ID/g Pancreas): 0.94 %ID/g | tissue uptake at 72 h (% ID/g Pancreas): 0.15 %ID/g | tissue uptake at 4 h (% ID/g Spleen): 0.76 %ID/g | tissue uptake at 24 h (% ID/g Spleen): 0.31 %ID/g | tissue uptake at 72 h (% ID/g Spleen): 0.07 %ID/g | tissue uptake at 4 h (% ID/g Stomach): 6.28 %ID/g | tissue uptake at 24 h (% ID/g Stomach): 4.63 %ID/g | tissue uptake at 72 h (% ID/g Stomach): 1.26 %ID/g | tissue uptake at 4 h (% ID/g Tumor): 41.8 %ID/g | tissue uptake at 24 h (% ID/g Tumor): 27.5 %ID/g | tissue uptake at 72 h (% ID/g Tumor): 9.48 %ID/g
